The text below walks through data of patent publication US20230399393A1, “METHODS TO EXTEND HEALTH-SPAN AND TREAT AGE-RELATED DISEASES” (National University of Singapore, priority 2020, published 2023).

Assay [1] concerns human hepatocytes. The assay is described as follows: IL-11 stimulation in the presence of DMSO or U0126, western blot. Type of assay: cell-based. Particulars: IL-11 24 hours; U0126 10 μM. As for the experimental part: FIG. 22. Western blot image showing the levels of p-ERK, ERK, p-P90RSK, P90RSK, p-LKB1, LKB1, p-AMPK, AMPK, p-mTOR, mTOR, p-p70S6K, p70S6K, p-S6RP, S6RP in primary human hepatocytes that are unstimulated (BL+DMSO) or stimulated for 24 hours with IL11 in the presence DMSO or U0126 (10 μM).
(§1) Primary human hepatic stellate cells and human hepatocytes were stimulated for 24 hours with IL-11 in the presence DMSO or U0126. As discussed in Example 4.4, the inventors observed that IL-11 treatment stimulates p-mTOR, p-70S6K and p-S6RP. In line with the inventors' hypothesis, administration of U0126 to IL-11-stimulated cells prevents ERK-mediated inactivation of LKB1/AMPK that stops IL11-induced mTORC1/P70S6K activation (FIG. 21 and FIG. 22, respectively).
(In general: Immunoblotting shows a protein as a band on a membrane.)

Assay [2] has as its system Primary human hepatic stellate cells. The assay is described as above. Format: cell-based. The settings on record: IL-11 24 hours; U0126 10 μM. Here is the method:
FIG. 21. Western blot image showing the levels of p-ERK, ERK, p-P90RSK, P90RSK, p-LKB1, LKB1, p-AMPK, AMPK, p-mTOR, mTOR, p-p70S6K, p70S6K, p-S6RP, S6RP, SMA, and GAPDH in primary human hepatic stellate cells that are unstimulated (BL+DMSO) or stimulated for 24 hours with IL11 in the presence DMSO or U0126 (10 μM).
as §1

In assay [3] the test system is Primary human cardiac fibroblasts. Nature of the assay: IL-11-stimulated fibroblasts with Rapamycin, Wortmannin or U0126, western blot. Type of assay: cell-based. Particulars: IL11 10 ng/ml 24 hours; Rapamycin 10 nM, Wortmannin 1 μM, U0126 10 μM. Here is the method: FIG. 18. Western blot image showing the levels of p-LKB1, LKB1, p-AMPK, AMPK in primary human cardiac fibroblasts that are unstimulated (BL+DMSO) or stimulated with IL11 for 24 hours in the presence of either DMSO, Rapamycin, Wortmannin, or U0126. IL11(10 ng/ml), Rapamycin (10 nM), Wortmannin (1 μM), U0126 (10 μM).
Primary human cardiac fibroblasts were stimulated with IL-11 for 24 hours in the presence of either DMSO, Rapamycin (mTOR inhibitor), Wortmannin (phosphoinositide 3-kinases (PI3K) inhibitor), or U0126 (MEK1/2 inhibitor) and the levels of p-LKB1 and p-AMPK were measured by western blot (FIG. 18).

Assay [4] relates to rheumatoid synovial cells. The settings on record: upon treatment; cited from earlier work.
Assay [5] has as its system Primary human hepatic stellate cells (HSCs). Nature of the assay: Increasing concentrations of IL-11 or IL-6, western blot p-LKB1/p-AMPK. The settings on record: 24 hours; 1.25-20 ng/ml, even at the highest concentration. Format: cell-based. As for the experimental part: (§2) FIG. 23. Western blot image showing the levels of p-LKB1, LKB1, p-AMPK, AMPK in primary human hepatocytes or primary human hepatic stellate cells that are unstimulated (BL) or stimulated for 24 hours with increasing concentrations (1.25, 2.5, 5, 10 or 20 ng/ml) of IL-11 or IL-6.
(§3) Primary human hepatic stellate cells (HSCs) and human hepatocytes were stimulated for 24 hours with increasing concentrations (1.25-20 ng/ml) of IL-11 or IL-6. […] The effect of IL-11 on these markers is observable at concentrations as low as 1.25 ng/ml in both HSCs and hepatocytes.

For assay [6], the system named is human hepatocytes. Described as above. Particulars: 24 hours; 1.25-20 ng/ml, even at the highest concentration. Type of assay: cell-based. Here is the method:
as §2, §3

Another assay relates to AML12 cells. The assay is described as follows: In vitro model of senescence induction, qRT-PCR at day 7. Format: cell-based, mouse. The settings on record: 2 ug/ml from day 2, H2O2 0.75 mM, vs isotype-matched control IgG. Here is the method: Senescent hepatic mouse cells were generated from cells of the mouse hepatocyte cell line AML12 as described in Tripathi et al., Star Protocols (2020) 1:100064 (hereby incorporated by reference in its entirety).
Briefly, AML12 cells were grown to 50% confluency and senescence was induced by treating the cells with a sub-lethal concentration of H2O2 (0.75 mM) for 1 h, followed by 23 h recovery per day, for a total of 7 days (as described in Tripathi et al., Star Protocols (2020) 1:100064). From day 2 onwards, 2 ug/ml of X209/X203 or isotype-matched control IgG was added to the cultures during the 23h recovery period.
Total RNA was isolated at day 7, and levels of p21 (Cdkn1a), […], Il11 and Tgfb gene expression were evaluated by qRT-PCR. Briefly, total RNA was extracted from cell lysates using Trizol (Invitrogen) followed by RNeasy column (Qiagen) purification. cDNAs were synthesized with iScript™ cDNA synthesis kit (Bio-Rad) according to manufacturer's instructions. Gene expression analysis was performed with either TaqMan (Applied Biosystems) or fast SYBR green (Qiagen) using the StepOnePlus Real-Time PCT System (Applied Biosystems) over 40 cycles. Expression data for p21 (Cdkn1a), Il1b, Il11 and Tgfb were normalised to Gapdh expression, and fold change was calculated using the 2^−ΔΔCt method.
In general terms: Real-time PCR tracks product formation cycle by cycle.

Assay [7] concerns AML12. The assay is described as follows: Senescence reversal experiment, qPCR at day 10. Format: cell-based, mouse. The settings on record: 2 μg/ml for 72 hours after 7 days senescence induction; vs IgG. Here is the method: FIG. 25. (25A) Schematic of senescence reversal experiment for data shown in B-D. Senescent AML12 were generated for 7 days as described above. IgG/X203/X209 (2 μg/ml) was added into the cultures at the end of senescence induction period for 72 hours; cells were harvested at day 10 for RNA extraction and subsequent qPCR experiments. Relative mRNA expression of (25B) Cdkn1a (p21), (25C) Il1β, and (25D) Il11.
Briefly, senescent AML12 were generated for 7 days as described above, but IgG/X203/X209 (2 μg/ml) was added into the cultures at the end of senescence induction period for 72 hours.
(§4) Senescent AML12 were generated by treating the cells with a sub-lethal concentration of H2O2 (0.75 mM) for 1 hour, followed by 23 hours recovery per day, for 7 days as described (Tripathi, Yen, and Singh 2020, STAR Protocols 1 (2): 100064). For prevention study, AML12 cells were treated with 2 ug/ml of either IgG or X209 during the recovery period of the senescence induction stage (from day 1 to day 7); cells were harvested for total RNA collection at day 10. For reversal study, senescence was first induced for seven days followed by 2 ug/ml of IgG, X203, or X209 treatment for 3 days; cells were harvested for total RNA collection at day 10.
(§5) Total RNA was extracted from AML12 or snap-frozen tissues using Trizol (Invitrogen) and RNeasy Mini Kit (Qiagen). […] using iScript cDNA Synthesis Kit (Biorad). Gene expression analysis was performed on duplicate samples with either TaqMan (Applied Biosystems) for Il11 (Mm00434162) or fast SYBR green (Qiagen) technology using StepOnePlus™ (Applied Biosystem) for Ccl2, Ccl5, Gapdh, Il1β, Il6, Il8, p16, p21, Tnfα, over 40 cycles. Expression data were normalized to GAPDH mRNA expression and fold change was calculated using 2^−ΔΔct method.

Assay [8] deals with AML12. Nature of the assay: Senescence prevention experiment, qPCR at day 10. Type of assay: cell-based, mouse. Particulars: 2 μg/ml during recovery period, vs IgG. Here is the method: FIG. 24. (24A) Schematic of senescence prevention experiment for data shown in B-F. Senescent AML12 were generated by treating the cells with a sub-lethal concentration of H2O2 (0.75 mM) for 1 hour, followed by 23 hours recovery per day, for 7 days as described by Tripathi et. al. (2020). IgG/X209 (2 μg/ml) was added into the cultures during the 23 hours recovery period for 10 days; cells were harvested at day 10 for RNA extraction and subsequent qPCR experiments. Relative mRNA expression of (24B) Cdkn2a (p16), (24C) Cdkn1a (p21), (24D) Il1β, (24E) Il8, and (24F) Il11.
Briefly, senescent AML12 were generated by treating the cells with a sub-lethal concentration of H2O2 as described by Tripathi et. al. (2020) STAR Protocols 1 (2): 100064. IgG/X209 (2 μg/ml) was added into the cultures during the 23 hours recovery period for 10 days. Relative mRNA expression of Cdkn2a (p16), Cdkn1a (p21), Il1β, Il8, and Il11, as measured by qPCR is shown in FIGS. 24B, 24C, 24D, 24E and 24F, respectively. Markers of senescence (P16 and p21) and markers of inflammation (IL-1b, IL-11 and […]) are diminished in cells that have undergone IL-11-mediated signalling antagonism by X209.
as §4, §5

Assay [9] deals with Primary human cardiac fibroblasts. The assay is described as follows: IL11 or TGFβ1 stimulated fibroblasts with X203, X209 or IgG, western blot. Format: cell-based. Particulars: IL11/TGFβ1 10 ng/ml, 24 hours; antibody 2 μg/ml. As for the experimental part:
FIG. 19. Western blot image showing the levels of p-ERK, ERK, p-P90RSK, P90RSK, p-LKB1, LKB1, p-AMPK, AMPK, p-mTOR, mTOR, p-p70S6K, p70S6K, p-S6RP, S6RP, SMA, and GAPDH in primary human cardiac fibroblasts that are unstimulated (BL) or stimulated for 24 hours with either IL11 or TGFβ1 in the presence of X203, X209, or IgG (11E10) isotype control. IL11/TGFβ1 (10 ng/ml), IgG/X203/X209 (2 μg/ml).
Primary human cardiac fibroblasts were stimulated with IL11 or TGFβ1, or unstimulated (BL).

Assay [10] has as its system Primary human hepatocytes. Nature of the assay: Hepatocytes stimulated with IL-11, BSA or palmitate with X203, X209 or IgG, western blot. Type of assay: cell-based. Particulars: 24 hours; antibody 2 μg/ml; IL11 10 ng/ml or palmitate 0.5 mM. As for the experimental part:
FIG. 20. Western blot image showing the levels of p-ERK, ERK, p-P90RSK, P90RSK, p-LKB1, LKB1, p-AMPK, AMPK, p-Acetyl-CoA Carboxylase (p-ACC), Acetyl-CoA Carboxylase (ACC), p-mTOR, mTOR, p-p70S6K, p70S6K, p-S6RP, S6RP in primary human hepatocytes that are unstimulated (BL) or stimulated for 24 hours with either IL11, 0.5% BSA, or palmitate (saturated fatty acid) in the presence of X203, X209, or IgG (11E10) isotype control. IL11 (10 ng/ml), IgG/X203/X209 (2 μg/ml), palmitate (0.5 mM) conjugated in free BSA (0.5% BSA solution) in the ratio of 6:1.
Primary human hepatocytes (stimulated with IL-11, BSA or palmitate, or unstimulated) were treated with X203 (anti-IL-11 antagonist antibody) and X209 (anti-IL-11Rα antagonist antibody). […] Treatment with X203 or X209 essentially reverses the effect of palmitate stimulation on these markers to the levels observed in the unstimulated control.

Regarding `N#CC(=C(/N)Sc1ccccc1N)/C(C#N)=C(\N)Sc1ccccc1N` [U0126], in the assay on human hepatocytes [1], the “ERK-mediated inactivation of LKB1/AMPK” value is reported as “prevents” and the “IL11-induced mTORC1/P70S6K activation” value was “stops”. Moreover, in assay [2], the “ERK-mediated inactivation of LKB1/AMPK” value is given as “prevents” and the “IL11-induced mTORC1/P70S6K activation” value was “stops”. Besides, in [3], the “level of p-AMPK” value was “increases” and the “level of p-LKB1” value is listed as “decreases”.
Take `COc1ccc2c(c1)c(CC(=O)O)c(C)n2C(=O)c1ccc(Cl)cc1` [indomethacin, reference compound]: the “expression of IL-11” value in [4] is reported as “reduction”.
For “IL-6: cytokine used as comparator stimulus to IL-11”, the “inactivation of LKB1 or activation of AMPK” value (in assay [5]; in the assay with human hepatocytes [6]) was “does not induce” each time.
Regarding “interferon-gamma: interferon-gamma (IFNγ)”, the “expression of IL-11” value in assay [4] is listed as “reduction”.

B1: X209: mouse anti-mouse IL-11Rα IgG antagonist antibody; VH SEQ ID NO:24, VL SEQ ID NO:25 (antibody, V domains shown)
VH: QVQLQQPGAELVRPGSSVKLSCKASGYTFTNYWMHWLKQRPVQGLEWIGNIGPSDSKTHYNQKFKDKATLTVDKSSSTAYMQLNSLTSEDSAVYYCARGDYVLFTYWGQGTLVTVSA
VL: DIVLTQSPATLSLSPGERATLSCRASQSISNNLHWYQQKSHEAPRLLIKYASQSISGIPARFSGSGSGTDFTLSFSSLETEDFAVYFCQQSYSWPLTFGQGTKLEIK
B1: in the assay on AML12 cells, the “gene expression of Il11” value was “significantly reduce”, the “gene expression of Il11b” value is recorded as “significantly reduce”, the “gene expression of Tgfb” value is listed as “significantly reduce” and the “gene expression of p21 (Cdkn1a)” value is on record as “significantly reduce”. Moreover, in the assay with AML12 [7], the “inflammation marker IL-1 b” value is recorded as “significantly reduce”, the “inflammation marker IL-11” value is recorded as “significantly reduce” and the “senescence marker p21” value was “significantly reduce”. Further, in the assay on AML12 [8], the “marker of inflammation IL-1b mRNA” value was “diminished”, the “marker of inflammation IL-6” value is on record as “diminished”, the “marker of inflammation IL-11 mRNA” value was “diminished” and the “marker of senescence P16 (Cdkn2a) mRNA” value is recorded as “diminished”. Also, the “marker of senescence p21 (Cdkn1a) mRNA” value with AML12 [8] was “diminished”. The “level of phosphorylation of markers ERK, p90RSK, LKB1, mTOR, p70S6K and S6RP” value in assay [9] is “significantly reduce”. In addition, in assay [10], the “levels of p-AMPK and p-ACC” value is reported as “increase”; the “levels of phosphorylated markers p-ERK, p-p90RSK, p-LKB1, p-mTOR, p-p70S6K and p-S6RP” value is “reduces”.
